In PMC4210448:

Target: Map205 (UniProt P23226)
Assay: PrA-Map205 affinity purification, GFP blot
Conditions: reference: Polo WT-GFP with Aurora B–Myc; sites T182

binding against the reference: stronger
Substance: Polo (from UniProt P52304) Polo T182A-GFP with Aurora B–Myc
